In US20240043515A1 (Chugai, published 2024):
Residue numbers refer to the chain shown, from its start. Names may count otherwise. Blank lines part the entries; values can stand above or below the binder they belong to.

Columns and labels:
[1] = target: hFcγRIIIaV on Jurkat effector cells (human, UniProt P08637 17-254); experiment: cell-based or functional assay
[2] = target: T1, human FcγRIIa H extracellular domain (human, UniProt P12318 34-217); experiment: SPR; KD for hFcγRIIb divided by KD for this FcγR
T1 construct: extracellular domain; also called hFcγR IIa H; FcγRIIa allotype H131
T1 sequence (looked up): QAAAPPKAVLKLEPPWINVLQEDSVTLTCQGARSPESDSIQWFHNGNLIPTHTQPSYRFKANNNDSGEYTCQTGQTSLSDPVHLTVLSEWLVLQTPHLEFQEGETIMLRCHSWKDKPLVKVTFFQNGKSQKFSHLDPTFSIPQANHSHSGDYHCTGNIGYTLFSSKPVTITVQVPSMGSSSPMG
Protocol: (§1) The extracellular domains of FcγRs were produced by the method described in WO2014104165. The interaction between the produced antibodies and human FcγRs was analyzed using Biacore 8K+ by the method below. For the running buffer, 50 mM Na-Phosphate, 150 mM NaCl, and 0.05% Tween20 (pH 7.4) was used, and measurement was performed at 25° C. The sensor chip used was a Series S SA chip (GE Healthcare) onto which CaptureSelect Human Fab-kappa Kinetics Biotin Conjugate (Thermo Fisher Scientific) was immobilized. An antibody of interest was captured onto this chip, and each FcγR diluted with the running buffer was allowed to interact with it. The chip was regenerated using 10 mM Glycine-HCl (pH 1.5), and repeatedly used to capture antibodies and perform measurement. The dissociation constants KD (mol/L) of each antibody for FcγRs were calculated using Biacore Insight Evaluation Software, with a steady state affinity model for the dissociation constant for FcγRIIb and a 1:1 Langmuir binding model for the dissociation constants for the other FcγRs (Table 2).

[3] = target: T2, human FcγRIIIa V extracellular domain (human, UniProt P08637 17-208); experiment: SPR; KD for hFcγRIIb divided by KD for this FcγR
T2 construct: extracellular domain; also called hFcγR IIIa V; FcγRIIIa allotype V158
T2 sequence (P08637 17-208 F176V): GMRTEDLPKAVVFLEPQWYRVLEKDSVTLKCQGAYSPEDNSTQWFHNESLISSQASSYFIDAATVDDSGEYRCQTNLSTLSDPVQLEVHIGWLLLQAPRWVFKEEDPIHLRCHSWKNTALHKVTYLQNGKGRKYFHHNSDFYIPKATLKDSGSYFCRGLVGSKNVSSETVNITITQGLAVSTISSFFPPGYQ
Protocol: as §1

[4] = target: T3, human FcγRIIIa F extracellular domain (human, UniProt P08637 17-208); experiment: SPR; KD for hFcγRIIb divided by KD for this FcγR
T3 construct: extracellular domain; also called hFcγR IIIa F; FcγRIIIa allotype F158
T3 sequence (P08637 17-208): as the sequence (P08637 17-208 F176V) above, with V160F counted along it
Protocol: as §1

[5] = target: T4, human FcγRIIa R extracellular domain (human, UniProt P12318 34-217); experiment: SPR; KD for hFcγRIIb divided by KD for this FcγR
T4 construct: extracellular domain; also called hFcγR IIa R; FcγRIIa allotype R131
T4 sequence (looked up): T1 sequence (looked up) with H134R
Protocol: as §1

[6] = target: T5, hFcγRIIaH on Jurkat effector cells (human, UniProt P12318 34-317); experiment: cell-based or functional assay
T5 sequence (looked up): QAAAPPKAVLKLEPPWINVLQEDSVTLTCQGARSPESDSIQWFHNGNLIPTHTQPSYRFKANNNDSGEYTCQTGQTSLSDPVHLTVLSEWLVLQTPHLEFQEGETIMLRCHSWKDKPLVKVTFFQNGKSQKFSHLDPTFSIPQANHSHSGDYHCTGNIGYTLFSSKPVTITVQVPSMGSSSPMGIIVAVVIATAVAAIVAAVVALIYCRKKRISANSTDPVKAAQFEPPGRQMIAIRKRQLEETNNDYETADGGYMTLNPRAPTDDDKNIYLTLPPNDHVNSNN

[7] = target: T1, human FcγRIIa H extracellular domain; experiment: SPR; KD of G1d divided by KD of this antibody
Protocol: as §1

[8] = target: T2, human FcγRIIIa V extracellular domain; experiment: SPR; KD of G1d divided by KD of this antibody
Protocol: as §1

[9] = target: T6, human FcγRIa extracellular domain (human, UniProt P12314 16-292); experiment: SPR; KD of G1d divided by KD of this antibody
T6 construct: extracellular domain; also called hFcγR Ia
T6 sequence (P12314 16-292): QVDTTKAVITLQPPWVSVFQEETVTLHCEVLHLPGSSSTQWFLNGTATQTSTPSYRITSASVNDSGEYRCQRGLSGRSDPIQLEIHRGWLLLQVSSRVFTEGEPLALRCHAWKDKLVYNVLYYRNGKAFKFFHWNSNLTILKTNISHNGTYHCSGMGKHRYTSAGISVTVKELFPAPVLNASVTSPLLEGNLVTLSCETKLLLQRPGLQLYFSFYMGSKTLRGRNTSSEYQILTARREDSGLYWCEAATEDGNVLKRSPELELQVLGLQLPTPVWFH
Protocol: as §1

[10] = target: T3, human FcγRIIIa F extracellular domain; experiment: SPR; KD of G1d divided by KD of this antibody
Protocol: as §1

[11] = target: T7, human FcγRIIb extracellular domain (human, UniProt P31994 43-217); experiment: SPR; KD of G1d divided by KD of this antibody
T7 construct: extracellular domain; also called hFcγR IIb
T7 sequence (looked up): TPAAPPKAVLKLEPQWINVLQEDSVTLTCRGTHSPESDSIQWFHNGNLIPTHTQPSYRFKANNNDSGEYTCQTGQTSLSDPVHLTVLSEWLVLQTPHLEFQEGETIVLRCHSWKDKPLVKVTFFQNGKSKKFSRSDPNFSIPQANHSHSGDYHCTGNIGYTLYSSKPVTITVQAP
Protocol: as §1

[12] = target: T4, human FcγRIIa R extracellular domain; experiment: SPR; KD of G1d divided by KD of this antibody
Protocol: as §1

Sequence of hFcγRIIIaV on Jurkat effector cells (P08637 17-254, form in doubt): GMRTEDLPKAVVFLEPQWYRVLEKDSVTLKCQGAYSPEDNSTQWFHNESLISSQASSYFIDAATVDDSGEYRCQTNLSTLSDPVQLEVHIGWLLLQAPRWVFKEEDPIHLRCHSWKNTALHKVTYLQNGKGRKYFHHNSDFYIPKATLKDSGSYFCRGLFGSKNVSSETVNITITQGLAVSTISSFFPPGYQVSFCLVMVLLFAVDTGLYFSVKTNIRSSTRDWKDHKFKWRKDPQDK

EC50 of reporter gene induction (ADCC Reporter Bioassay, Hepa1-6/hEREG target cells) [1]: 0.789 ng/mL
A/I ratio (KD for FcγRIIb divided by KD for each FcγR) [2]: 65.2 ratio
A/I ratio (KD for FcγRIIb divided by KD for each FcγR) [3]: 15000 ratio
A/I ratio (KD for FcγRIIb divided by KD for each FcγR) [4]: 9940 ratio
A/I ratio (KD for FcγRIIb divided by KD for each FcγR) [5]: 22.5 ratio
EC50 of reporter gene induction (ADCP Reporter Bioassay, Hepa1-6/hEREG target cells) [6]: 0.0432 µg/mL
Relative value to KD between G1d and hFcgRs [7]: 6.3 times
Relative value to KD between G1d and hFcgRs [8]: 462 times
Relative value to KD between G1d and hFcgRs [9]: 2.9 times
Relative value to KD between G1d and hFcgRs [10]: 2520 times
Relative value to KD between G1d and hFcgRs [11]: 0.9 times
Relative value to KD between G1d and hFcgRs [12]: 3.2 times
B1: EGL-ART4 (H240-Kn456/L73-k0//H240-H1446/L73-k0) (antibody, human IgG1, kappa)
heavy 1: QDQLVQSGAEVKKPGASVKVSCKASGFNIKDTYIQWVRQAPGQGLEWMGRIDPLRKQTKYREKFEGRVTITADTSTNTAYMELSSLRSEDTAVYYCVRSGREFDYWGQGTLVTVSSASTKGPSVFPLAPSSKSTSGGTAALGCLVKDYFPEPVTVSWNSGALTSGVHTFPAVLQSSGLYSLSSVVTVPSSSLGTQTYICNVNHKPSNTKVDKKVEPKSCDKTHTCPPCPAPEFQWGPMVFLFPPKPKDVLMISRTPEVTCVVVDVSDEEPEVKFNWYVDGVEVHNAKTKPREEQYNATYRVVSVLPVLHQDWLNGKEYKCKVSNKALPMPEEKTISKAKGQPREPQVCTLPPSRDELTKNQVSLWCLVKGFYPSDIAVEWESNGQPENNYKTTPPVLDSDGSFFLYSKLTVDKSRWQQGNVFSCSVMHEALHNHYTQKSLSLSP
heavy 2: QDQLVQSGAEVKKPGASVKVSCKASGFNIKDTYIQWVRQAPGQGLEWMGRIDPLRKQTKYREKFEGRVTITADTSTNTAYMELSSLRSEDTAVYYCVRSGREFDYWGQGTLVTVSSASTKGPSVFPLAPSSKSTSGGTAALGCLVKDYFPEPVTVSWNSGALTSGVHTFPAVLQSSGLYSLSSVVTVPSSSLGTQTYICNVNHKPSNTKVDKKVEPKSCDKTHTCPPCPAPELLAGPSVFLFPPKPKDVLMISRTPEVTCVVVDVSHEEPEVKFNWYVDGVEVHNAKTKPREEQYNATYRVVSVLPVLHQDWLNGKEYKCKVSNDALPMPEEETISKAKGQPREPQVYTLPPSRCELTKNQVSLSCAVKGFYPSDIAVEWESNGQPENNYKTTPPVLDSDGSFFLVSKLTVDKSRWQQGNVFSCSVMHEALHNHYTQKSLSLSP
light: DIQMTQSPSSLSASVGDRVTITCRASQDIHKYIAWYQQKPGQAPRLLIQYTSTLQPGVPSRFSGSGSGTDYTFTISSLQPEDIATYYCLQYEQLRTFGGGTKVEIKRTVAAPSVFIFPPSDEQLKSGTASVVCLLNNFYPREAKVQWKVDNALQSGNSQESVTEQDSKDSTYSLSSTLTLSKADYEKHKVYACEVTHQGLSSPVTKSFNRGEC
notes: Kn456: L234F/L235Q/G236W/S239M/T250V/H268D/D270E/S298A/T307P/A330M/I332E + Y349C/T366W; H1446: G236A/T250V/D270E/S298A/T307P/K326D/A330M/I332E/K334E + D356C/T366S/L368A/Y407V

EC50 of reporter gene induction (ADCC Reporter Bioassay, Hepa1-6/hEREG target cells) [1]: 1.53 ng/mL
A/I ratio (KD for FcγRIIb divided by KD for each FcγR) [2]: 181 ratio
A/I ratio (KD for FcγRIIb divided by KD for each FcγR) [3]: 2000 ratio
A/I ratio (KD for FcγRIIb divided by KD for each FcγR) [4]: 396 ratio
A/I ratio (KD for FcγRIIb divided by KD for each FcγR) [5]: 52.4 ratio
EC50 of reporter gene induction (ADCP Reporter Bioassay, Hepa1-6/hEREG target cells) [6]: 0.0158 µg/mL
Relative value to KD between G1d and hFcgRs [7]: 32.1 times
Relative value to KD between G1d and hFcgRs [8]: 114 times
Relative value to KD between G1d and hFcgRs [9]: 0.5 times
Relative value to KD between G1d and hFcgRs [10]: 185 times
Relative value to KD between G1d and hFcgRs [11]: 1.6 times
Relative value to KD between G1d and hFcgRs [12]: 13.7 times
B2: EGL-ART3 (H240-Kn443/L73-k0//H240-H1408/L73-k0) (antibody, human IgG1, kappa)
heavy 1: B1 heavy 1 with V249T, P306T, K325D, M329A, E331I
heavy 2: B1 heavy 2 with V249T, P306T, M329A, E331I
light: B1 light
notes: Kn443: L234F/L235Q/G236W/S239M/H268D/D270E/S298A/K326D + Y349C/T366W; H1408: G236A/D270E/S298A/K326D/K334E + D356C/T366S/L368A/Y407V

EC50 of reporter gene induction (ADCC Reporter Bioassay, Hepa1-6/hEREG target cells) [1]: 1.35 ng/mL
A/I ratio (KD for FcγRIIb divided by KD for each FcγR) [2]: 5.8 ratio
A/I ratio (KD for FcγRIIb divided by KD for each FcγR) [3]: 264 ratio
A/I ratio (KD for FcγRIIb divided by KD for each FcγR) [4]: 68.4 ratio
A/I ratio (KD for FcγRIIb divided by KD for each FcγR) [5]: 13 ratio
EC50 of reporter gene induction (ADCP Reporter Bioassay, Hepa1-6/hEREG target cells) [6]: 0.0218 µg/mL
Relative value to KD between G1d and hFcgRs [7]: 14.7 times
Relative value to KD between G1d and hFcgRs [8]: 215 times
Relative value to KD between G1d and hFcgRs [9]: 3.4 times
Relative value to KD between G1d and hFcgRs [10]: 460 times
Relative value to KD between G1d and hFcgRs [11]: 22.8 times
Relative value to KD between G1d and hFcgRs [12]: 49 times
B3: EGL-ART2 (H240-Kn120/L73-k0//H240-H1068/L73-k0) (antibody, human IgG1, kappa)
heavy 1: B1 heavy 1 with F233Y, Q234Y, V249T, E269D, P306T, A326D, M329A, E331I
heavy 2: B1 heavy 2 with A235G, V249T, A297S, P306T, M329K, E331I
light: B1 light
notes: Kn120: L234Y/L235Y/G236W/S239M/H268D/S298A/A327D + Y349C/T366W; also called Kn120/H1068
